{"source": "patent US20220220166", "about": "“PPR PROTEIN CAUSING LESS AGGREGATION AND USE OF THE SAME” (EditForce, Inc., published 2022)", "experiment_in_all_cases": "vs PPRcag_1; streptavidin plate luciferase assay, RT", "conditions_in_all_cases": "tags: N-terminal luciferase (Nluc), C-terminal 6xHis; label: 5'-biotin", "key": {"[1]": {"biological_target": "T1, PPRcag_5 (6N9K), Nluc-PPR-His6 (synthetic construct)", "T1 chain": "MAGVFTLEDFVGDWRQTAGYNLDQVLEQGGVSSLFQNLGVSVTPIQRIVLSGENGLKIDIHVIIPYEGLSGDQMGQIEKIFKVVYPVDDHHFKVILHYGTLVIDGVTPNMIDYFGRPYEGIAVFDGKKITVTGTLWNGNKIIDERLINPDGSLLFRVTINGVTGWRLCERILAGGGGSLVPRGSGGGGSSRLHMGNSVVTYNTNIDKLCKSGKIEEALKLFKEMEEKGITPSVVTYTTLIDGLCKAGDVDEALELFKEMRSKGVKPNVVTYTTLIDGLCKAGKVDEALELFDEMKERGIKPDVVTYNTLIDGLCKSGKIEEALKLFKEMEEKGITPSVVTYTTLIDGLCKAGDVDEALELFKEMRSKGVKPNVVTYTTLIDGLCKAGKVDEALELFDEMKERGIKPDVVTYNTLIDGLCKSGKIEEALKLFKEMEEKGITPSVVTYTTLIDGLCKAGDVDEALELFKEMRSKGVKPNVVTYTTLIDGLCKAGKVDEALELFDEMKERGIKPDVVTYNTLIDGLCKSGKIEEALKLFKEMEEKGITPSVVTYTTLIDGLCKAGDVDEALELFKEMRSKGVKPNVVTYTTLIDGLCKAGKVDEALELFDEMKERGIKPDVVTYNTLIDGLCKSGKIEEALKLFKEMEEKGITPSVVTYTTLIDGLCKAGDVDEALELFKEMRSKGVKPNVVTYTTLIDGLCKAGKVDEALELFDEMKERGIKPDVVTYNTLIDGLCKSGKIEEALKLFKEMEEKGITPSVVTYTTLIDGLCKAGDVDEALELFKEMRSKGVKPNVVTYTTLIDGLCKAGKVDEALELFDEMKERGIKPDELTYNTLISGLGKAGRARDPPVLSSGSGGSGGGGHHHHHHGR", "procedure": "(§1) The binding experiment for PPR protein and RNA was performed by an experimental method for binding of PPR protein and biotinylated RNA on a streptavidin plate.\n(§2) There were synthesized RNA probes of 30-base RNAs containing the target CAGx6 sequence, untargeted CGGx6, CUGx6, and CCGx6, and the Dlb ([…]) sequence (positions 8 to 25 of SEQ ID NO: 42) modified with biotin at the 5′-end (in that order, SEQ ID NOS: 38 to 42, respectively) (Grainer). To a streptavidin-coated plate (Thermo Fisher, Cat. No. 15502), the 5′-end biotinylated RNA probes were added, reaction was allowed at room temperature for 30 minutes, and the plate was washed with a probe washing buffer (20 mM Tris-HCl, pH 7.6, 150 mM NaCl, 5 mM MgCl₂, 0.5% NP-40, 1 mM DTT, 0.1% BSA). For background measurement, wells to which biotinylated RNA was not added, but the lysis buffer was added were also prepared. Then, a blocking buffer (20 mM Tris-HCl, pH 7.6, 150 mM NaCl, 5 mM MgCl₂, 0.5% NP-40, 1 mM […], 1% BSA) was added, and the plate surface was blocked at room temperature for 30 minutes. Then, 100 μL of the E. coli lysate containing luciferase-fused PPR protein having a luminescence of 1.5×10⁸ LU/μL was added, and the binding reaction was allowed at room temperature for 30 minutes. Then, the plate was washed 5 times with 200 μL of a washing buffer (20 mM Tris-HCl, pH 7.6, 150 mM NaCl, 5 mM MgCl₂, 0.5% NP-40, 1 mM DTT). To each well, 40 μL of luciferase substrate (Promega, E151A) diluted 2,500-fold with the washing buffer was added, reaction was allowed for 5 minutes, and then luminescence was measured with a plate reader (PerkinElmer, Cat. No. 5103-35)."}, "[2]": {"biological_target": "T2, PPRcag_6 (6D9G), Nluc-PPR-His6 (synthetic construct)", "T2 chain": "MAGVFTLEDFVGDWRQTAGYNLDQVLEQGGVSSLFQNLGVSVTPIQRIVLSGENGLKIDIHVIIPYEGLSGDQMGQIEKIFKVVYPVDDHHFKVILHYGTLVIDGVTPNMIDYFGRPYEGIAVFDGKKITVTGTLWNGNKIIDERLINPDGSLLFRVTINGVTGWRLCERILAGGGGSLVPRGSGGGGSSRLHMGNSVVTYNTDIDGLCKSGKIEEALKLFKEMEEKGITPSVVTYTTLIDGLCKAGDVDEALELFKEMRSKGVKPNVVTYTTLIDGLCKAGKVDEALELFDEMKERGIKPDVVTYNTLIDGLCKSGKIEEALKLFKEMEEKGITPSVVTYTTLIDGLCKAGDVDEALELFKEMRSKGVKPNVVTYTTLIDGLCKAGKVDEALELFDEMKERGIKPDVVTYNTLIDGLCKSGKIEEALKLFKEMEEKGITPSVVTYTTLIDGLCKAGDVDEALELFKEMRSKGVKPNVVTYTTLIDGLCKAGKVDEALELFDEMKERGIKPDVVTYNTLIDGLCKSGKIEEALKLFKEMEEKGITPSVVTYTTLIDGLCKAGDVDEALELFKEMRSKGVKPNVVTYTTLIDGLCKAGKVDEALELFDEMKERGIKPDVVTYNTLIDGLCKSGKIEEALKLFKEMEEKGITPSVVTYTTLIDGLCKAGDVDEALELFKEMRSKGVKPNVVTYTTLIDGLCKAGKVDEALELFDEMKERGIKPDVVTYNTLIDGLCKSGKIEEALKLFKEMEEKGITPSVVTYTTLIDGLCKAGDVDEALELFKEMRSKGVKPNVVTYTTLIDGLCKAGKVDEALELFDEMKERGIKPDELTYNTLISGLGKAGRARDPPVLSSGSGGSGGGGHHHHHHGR", "procedure": "as §1, §2"}, "[3]": {"biological_target": "T3, PPRcag_4 (6N9E), Nluc-PPR-His6 (synthetic construct)", "T3 chain": "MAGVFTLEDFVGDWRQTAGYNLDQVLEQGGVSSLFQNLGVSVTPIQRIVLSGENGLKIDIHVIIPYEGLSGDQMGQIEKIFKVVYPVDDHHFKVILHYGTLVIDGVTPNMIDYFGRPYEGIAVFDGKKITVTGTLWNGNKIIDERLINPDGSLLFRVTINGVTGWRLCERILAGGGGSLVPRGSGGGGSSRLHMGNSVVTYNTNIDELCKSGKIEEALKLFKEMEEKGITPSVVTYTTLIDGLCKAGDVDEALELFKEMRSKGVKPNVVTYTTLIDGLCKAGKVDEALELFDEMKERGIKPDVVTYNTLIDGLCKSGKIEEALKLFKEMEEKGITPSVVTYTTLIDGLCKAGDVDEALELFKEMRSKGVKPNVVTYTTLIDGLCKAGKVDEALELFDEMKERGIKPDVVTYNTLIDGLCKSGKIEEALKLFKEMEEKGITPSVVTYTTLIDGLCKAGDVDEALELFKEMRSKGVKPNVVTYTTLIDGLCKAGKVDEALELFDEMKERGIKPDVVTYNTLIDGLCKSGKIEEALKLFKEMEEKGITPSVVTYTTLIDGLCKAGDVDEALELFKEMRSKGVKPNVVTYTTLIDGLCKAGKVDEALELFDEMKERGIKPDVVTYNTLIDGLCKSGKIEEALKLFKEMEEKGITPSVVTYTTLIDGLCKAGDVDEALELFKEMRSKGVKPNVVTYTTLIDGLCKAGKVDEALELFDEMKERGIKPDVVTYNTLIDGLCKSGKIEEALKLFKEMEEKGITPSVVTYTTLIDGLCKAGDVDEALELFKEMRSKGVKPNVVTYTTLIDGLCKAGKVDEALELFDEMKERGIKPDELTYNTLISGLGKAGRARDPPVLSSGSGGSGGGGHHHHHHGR", "procedure": "as §1, §2"}, "[4]": {"biological_target": "T4, PPRcag_3 (6N9Q), Nluc-PPR-His6 (synthetic construct)", "T4 chain": "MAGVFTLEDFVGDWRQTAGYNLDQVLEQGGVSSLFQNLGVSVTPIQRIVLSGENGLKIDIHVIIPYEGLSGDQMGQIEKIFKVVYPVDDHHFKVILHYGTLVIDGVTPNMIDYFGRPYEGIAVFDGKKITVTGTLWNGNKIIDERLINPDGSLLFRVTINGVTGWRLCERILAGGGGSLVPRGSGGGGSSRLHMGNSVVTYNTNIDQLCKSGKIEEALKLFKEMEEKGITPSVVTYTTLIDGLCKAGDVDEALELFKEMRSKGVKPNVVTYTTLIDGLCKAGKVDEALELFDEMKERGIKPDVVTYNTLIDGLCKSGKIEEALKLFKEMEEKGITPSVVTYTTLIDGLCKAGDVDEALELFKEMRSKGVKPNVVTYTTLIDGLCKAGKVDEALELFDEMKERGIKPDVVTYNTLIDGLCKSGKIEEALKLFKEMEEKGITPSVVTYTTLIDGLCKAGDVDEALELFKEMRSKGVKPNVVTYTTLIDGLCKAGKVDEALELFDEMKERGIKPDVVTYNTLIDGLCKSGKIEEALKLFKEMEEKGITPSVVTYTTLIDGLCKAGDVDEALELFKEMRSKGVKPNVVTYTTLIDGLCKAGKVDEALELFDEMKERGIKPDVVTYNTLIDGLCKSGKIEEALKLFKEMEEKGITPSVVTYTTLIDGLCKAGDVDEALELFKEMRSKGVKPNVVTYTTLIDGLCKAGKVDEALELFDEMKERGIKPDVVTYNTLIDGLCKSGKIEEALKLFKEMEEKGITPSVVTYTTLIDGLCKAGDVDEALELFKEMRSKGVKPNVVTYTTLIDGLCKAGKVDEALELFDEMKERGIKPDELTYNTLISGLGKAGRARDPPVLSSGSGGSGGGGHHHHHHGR", "procedure": "as §1, §2"}}, "data": [{"binder": "GACAUGCCAGCAGCAGCAGCAGCAGGACUG (ssRNA)", "note": "[CAGx6 RNA probe]", "values": [{"measurement": "binding signal", "setting": "[1]", "result": "~120", "unit": "%"}, {"measurement": "binding signal", "setting": "[2]", "result": "~130", "unit": "%"}, {"measurement": "binding signal", "setting": "[3]", "result": "~60", "unit": "%"}, {"measurement": "binding signal", "setting": "[4]", "result": "~80", "unit": "%"}]}]}
